Assay results from US20110092427A1, “POLYPEPTIDE AND PHARMACEUTICAL COMPOSITION CONTAINING THE POLYPEPTIDE” (National University Corporation Hokkaido Universit y, priority 2008, published 2011).
Peptide text beside a SMILES is read from it.

Key:
[1] = tested on: human osteosarcoma cells, MG63; assay: Inhibition of MG63 tumor cell proliferation, 5-bromo-2' deoxyuridine incorporation; format: cell-based; conditions: 100 nM; FIG. 3 and FIG. 4, p<0.01
Procedure: (§1) The inhibitory effect of each polypeptide on tumor cell proliferation with respect to human osteosarcoma cells, MG63 (Health Science Research Resources) was measured in accordance with the method described by Takenaka et al. (Life Science, 2005, Vol. 77, pages 3231-3241).
(§2) Into Dulbecco's modified Eagle's medium (DMEM) supplemented with 10% of fetal bovine serum (FBS) and 100 units/mL penicillin and streptomycin (hereinbelow, simply referred to as a medium), MG63 was suspended. Then, 100 nM commercially available PEDF protein (Sigma) and each of 100 nM polypeptides F1 to F3 prepared in Example 1 “2) Production of polypeptides F1 to F3” were each added per medium, followed by incubation at 37° C. for 24 hours. Subsequently, [^3H] thymidine (Amersham Biosciences Corp.) was added and incubation was carried out for four hours, after which the amount of [^3H] thymidine incorporation by MG63 was measured and the inhibitory effect on tumor cell proliferation was examined.
Also, by carrying out similar operations to the above, the inhibitory effect on MG63 tumor cell proliferation was examined by measuring the amount of 5-bromo-2′ deoxyuridine (Roche) incorporation with addition of each of 100 nM polypeptides P1 to P6. […]

[2] = tested on: psoriasis patient-derived skin grafted onto the back of a mouse; assay: External application to psoriasis patient skin grafted onto SCID mice; format: in vivo; conditions: for side effects at the applied sites: 70 μL of 1 mM solution in PBS applied to grafted site daily for 14 days; for thickness of the grafted skin (HE-stained sections): psoriasis skin graft, 70 μL of 1 mM solution applied daily for 14 days, FIG. 6, p<0.05
Text: The hair in the area of approximately 1 cm^2 in the back of 7 to 8 week-old SCID mice (Clea Japan, Inc.) was shaved, and the full-thickness skin was removed while keeping the vessel plexus intact on the fascia overlying back muscles. The skin of affected area of a psoriasis patient that was sampled under the approval of the ethical code was washed with PBS containing 1% penicillin, 1% streptomycine, and 1% amphotericin B, and each piece of the skin thus treated was separately transplanted onto the skin-removed area of the above-described mice.
Seven days after transplantation, 70 μL of each of solutions prepared by dissolving polypeptides P5-1, P5-2, and P5-3 into phosphate buffered saline (PBS) (each 1 mM) was applied to the grafted sites of three mice daily for 14 days. […] Further, as a control, the same volumes of PBS solution containing a polypeptide having a random sequence and PBS without polypeptide were applied. After 14 days, a part of the grafted skin was collected and embedded in an optimal cutting temperature (OCT) reagent (Sakura finetechnical Co., Ltd.) and then frozen in liquid nitrogen, which was then prepared as 5 μm-thick sections.
Also, in accordance with the method of Abe et al. (Am. J. Pathol., 2004, Vol. 164, No. 4, pages 1225-1232), the capillary endothelial cells in the grafted superficial dermis were enumerated by immunoassay employing a rat anti-mouse CD31 antibody using CD31, which was a marker protein of the capillary endothelial cells, as an index.

[3] = tested on: human osteosarcoma cells, MG63; assay: Inhibition of MG63 tumor cell proliferation, [3H] thymidine incorporation; format: cell-based; conditions: 100 nM, incubation 24 hours, then [3H] thymidine four hours; FIG. 2, p<0.01
Procedure: as §1, §2

[4] = tested on: normal individual-derived skin grafted onto the back of mice; assay: Subcutaneous injection at normal individual skin grafted onto SCID mice; format: in vivo; conditions: skin of a normal individual, 30 μg subcutaneous injection, three times/week for three weeks
Text: (§3) Further, in a similar manner to the above, the hair in the area of approximately 1 cm^2 in the back of 7 to 8 week old SCID mice (Clea Japan, Inc.) was shaved, and the full-thickness skin was removed while keeping the vessel plexus intact on the fascia overlying back muscles. The skin of affected area of a psoriasis patient and the skin of a normal individual that were sampled under the approval of the ethical code were each washed with PBS containing 1% penicillin and 1% amphotericin B, and each of the skin thus treated was separately transplanted onto the skin-removed area of the above-described mice.
(§4) Seven days after transplantation, commercially available PEDF protein (30 μg) was given at the grafted site by subcutaneous injection. The injection was administered for three weeks at three times/week. As a control, a mouse given subcutaneous injection of only PBS was used. The day after the last subcutaneous injection, a part of the grafted skin was collected and stained with HE in a similar manner to the above, and the thickness of the grafted skin was measured. The results obtained from the skin of affected area of a psoriasis patient are shown in FIG. 8 (photograph) and FIG. 9, and the results obtained from the skin of a normal individual are shown in FIG. 10 (photograph) and FIG. 11.
(§5) Also, by carrying out similar operations to the above, the capillary endothelial cells were enumerated using CD31 as an index. The results obtained from the skin of affected area of a psoriasis patient are shown in FIG. 12 and the results obtained from the skin of a normal individual are shown in FIG. 13.
(§6) Further, the frequency of Ki-67 expressing positive cells, where Ki-67 is a proliferation marker of the basal cell layer, was measured in accordance with the method of Gilhar et al. (Am. J. Pathol., 2006, Vol. 168, No. 1, pages 170 to 175). The results obtained from the skin of affected area of a psoriasis patient are shown in FIG. 14 and the results obtained from the skin of a normal individual are shown in FIG. 15.

[5] = tested on: psoriasis patient-derived skin grafted onto the back of mice; assay: Subcutaneous injection at psoriasis patient skin grafted onto SCID mice; format: in vivo; conditions: skin of affected area of a psoriasis patient, 30 μg subcutaneous injection, three times/week for three weeks
Text: as §3, §4, §5, §6

Molecule: polypeptide P5: polypeptide of SEQ ID NO: 5, identical to the amino acid sequence of positions 381 to 400 of PEDF (HLTFPLDYHLNQPFIFVLRD; listed as Homo sapiens)
- inhibitory effect on MG63 tumor cell proliferation (amount of 5-bromo-2' deoxyuridine incorporation) [1]: an inhibitory effect on tumor cell proliferation was confirmed

Molecule: CC(C)C[C@H](NC(=O)[C@@H](N)Cc1c[nH]cn1)C(=O)N[C@H](C(=O)N[C@@H](Cc1ccccc1)C(=O)N1CCC[C@H]1C(=O)N[C@@H](CC(C)C)C(=O)N[C@@H](CC(=O)O)C(=O)O)[C@@H](C)O [polypeptide P5-1] (H-HLTFPLD-OH)
- side effects at the applied sites [2]: no side effects and the like were apparent

Molecule: polypeptide P5-3: polypeptide of SEQ ID NO: 3, identical to positions 395 to 400 of PEDF (FIFVLRD; listed as Homo sapiens)
- side effects at the applied sites [2]: no side effects and the like were apparent
- thickness of the grafted skin (HE-stained sections) [2]: significantly reduced

Molecule: polypeptide P5-2: polypeptide of SEQ ID NO: 2, identical to positions 388 to 394 of PEDF (YHLNQP; listed as Homo sapiens)
- side effects at the applied sites [2]: no side effects and the like were apparent
- thickness of the grafted skin (HE-stained sections) [2]: significantly reduced

B1: polypeptide F3: polypeptide comprising the amino acid sequence of positions 301 to 418 of PEDF (SEQ ID NO: 4) (protein, listed as Homo sapiens)
chain: IDRELKTVQAVLTVPKLKLSYEGEVTKSLQEMKLQSLFDSPDFSKITGKPIKLTQVEHRAGFEWNEDGAGTTPSPGLQPAHLTFPLDYHLNQPFIFVLRDTDTGALLFIGKILDPRGP
- inhibitory effect on tumor cell proliferation (amount of [3H] thymidine incorporation by MG63) [3]: a strong inhibitory effect on tumor cell proliferation was confirmed

B2: PEDF protein: commercially available PEDF protein comprising the amino acid sequence of SEQ ID NO: 6 (Sigma) (protein, listed as Homo sapiens)
chain: MQALVLLLCIGALLGHSSCQNPASPPEEGSPDPDSTGALVEEEDPFFKVPVNKLAAAVSNFGYDLYRVRSSTSPTTNVLLSPLSVATALSALSLGAEQRTESIIHRALYYDLISSPDIHGTYKELLDTVTAPQKNLKSASRIVFEKKLRIKSSFVAPLEKSYGTRPRVLTGNPRLDLQEINNWVQAQMKGKLARSTKEIPDEISILLLGVAHFKGQWVTKFDSRKTSLEDFYLDEERTVRVPMMSDPKAVLRYGLDSDLSCKIAQLPLTGSMSIIFFLPLKVTQNLTLIEESLTSEFIHDIDRELKTVQAVLTVPKLKLSYEGEVTKSLQEMKLQSLFDSPDFSKITGKPIKLTQVEHRAGFEWNEDGAGTTPSPGLQPAHLTFPLDYHLNQPFIFVLRDTDTGALLFIGKILDPRGP
- thickness of the grafted skin ([4]; FIG. 11, p<0.05): significantly reduced
- number of capillary endothelial cells (CD31-positive) ([4]; FIG. 13, p<0.05): significantly reduced
- frequency of Ki-67 expressing positive cells in the basal cell layer ([4]; FIG. 15, p<0.05): significantly reduced
- thickness of the grafted skin ([5]; FIG. 9, p<0.05): significantly reduced
- number of capillary endothelial cells (CD31-positive) ([5]; FIG. 12, p<0.05): significantly reduced
- frequency of Ki-67 expressing positive cells in the basal cell layer ([5]; FIG. 14, p<0.05): significantly reduced
